This note sets out measurements from patent publication US20170015742A1 (published 2017).

A value given as a limit tells only on which side of the number the result lay.

Assay [1] concerns the target T1, recombinant human PDGF-BB (human, UniProt P01127 82-190, biotin-labelled in the binding and competition ELISAs (sites not given)). Nature of the assay: cell-based or functional assay.
Assay [2] addresses T1, recombinant human PDGF-BB. Nature of the assay: Biacore SPR, antibody captured by anti-human Fc, PDGF-BB injected. As for the experimental part: For example, approximately 9000 RU of goat anti-human Fc specific polyclonal antibody (Thermo Fisher Scientific Inc., Rockford, Ill.) diluted in 10 mM sodium acetate (pH 4.5) is directly immobilized across a CM5 research grade biosensor chip using a standard amine coupling kit according to manufacturer's instructions and procedures at 25 μg/ml. Unreacted moieties on the biosensor surface were blocked with ethanolamine. For kinetic analysis, rate equations derived from the 1:1 Langmuir binding model were fitted simultaneously to multiple antigen injections (using global fit analysis) with the use of Scrubber 2 (BioLogic Software), Biacore Biaevaluation 4.0.1 software or Biacore T100 Evaluation software. Purified antibodies or DVD-Ig molecules were diluted in running buffer for capture across goat anti-human Fc reaction surfaces. Antibodies or DVD-Ig molecules to be captured as a ligand (1 μg/ml) were injected over reaction matrices at a flow rate of 10 μl/minute. During the assay, all measurements were referenced against the capture surface alone (i.e., with no captured antibody or DVD-Ig molecule). […] The equilibrium dissociation constant KD (M) of the reaction between antibodies and the target antigen was then calculated from the kinetic rate constants by the following formula: KD=Koff/Kₒₙ. Binding was recorded as a function of time and kinetic rate constants were calculated.

For assay [3], the target named is recombinant human VEGF165 (human, UniProt P15692 207-395). Description: cell-based or functional assay.
The target of assay [4] is recombinant human PDGF-BB (human, UniProt P01127 82-190). Description: cell-based or functional assay.
Sequence of recombinant human PDGF-BB (human, UniProt P01127 82-190) (P01127 82-190 limits assumed): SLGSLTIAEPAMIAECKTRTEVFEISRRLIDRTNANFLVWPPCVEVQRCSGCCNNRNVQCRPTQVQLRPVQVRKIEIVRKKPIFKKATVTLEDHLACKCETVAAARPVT

Sequence of recombinant human VEGF165 (P15692 other isoform, or with tags, fused parts or gaps limits assumed): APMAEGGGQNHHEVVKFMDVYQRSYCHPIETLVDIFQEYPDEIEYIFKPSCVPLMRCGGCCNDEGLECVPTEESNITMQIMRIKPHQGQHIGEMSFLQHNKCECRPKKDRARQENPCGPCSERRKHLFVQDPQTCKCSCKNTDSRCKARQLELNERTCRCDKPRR
T1 sequence (P01127 82-190 limits assumed): as the sequence (P01127 82-190 limits assumed) above

B1: chBFU-3E2-B9-B8 (antibody, human IgG1, V domains shown)
VH: EVQLQQSGPELQRPGASVKLSCKASGYTFTESYMYWVKQRPEQSLELIGRIDPEDGSTDYVEKFKNKATLTADTSSNTAYMQLSSLTSEDSATYFCARFGARSYFYPMDAWGQGTSVTVSS
VL: DTVLTQPPALAVSPGERVSISCRASESVSTLMHWYQQKPGQQPRLLIYGASNLESGVPARFSGSGSGTDFTLTIDPVEADDTATYFCQQSWNDPWTFGGGTKLELK
The Kd is the equilibrium constant for the complex coming apart. For orientation: koff means a measure of how fast the partners let go of each other. Broadly, the kon is a measure of how fast the partners come together. B1: the “huPDGF-BB Neutralization Potency (nM) in NIH-3T3 Cells” value (“huPDGF-BB Neutralization Potency (nM)” for short) in assay [1] was determined as 0.099 nM. In addition, in assay [2], the Kd was at most 19 pM, the koff came out at 0.00019 s⁻¹ and the on-rate (kon) was at least 1e+07 M⁻¹ s⁻¹.

B2: chBFU-3E2 half-body (antibody, V domains shown)
VH: EVQLQQSGPELQRPGASVKLSCKASGYTFTESYMYWVKQRPEQSLELIGRIDPEDGSTDYVEKFKNKATLTADTSSNTAYMQLSSLTSEDSATYFCARFGARSYFYPMDAWGQGTSVTVSS
VL: DTVLTQPPALAVSPGERVSISCRASESVSTLMHWYQQKPGQQPRLLIYGASNLESGVPARFSGSGSGTDFTLTIDPVEADDTATYFCQQSWNDPWTFGGGTKLELK
For B2, the “huPDGF-BB Neutralization Potency (nM)” value in assay [1] was 2.49 nM.

B3: chBFU-11A8 half-body (antibody, V domains shown)
VH: EVQLQQSGPELQRPGASVKLSCKASGYTFTESYIYWVKQRPEQSLELIGRIDPEDGSTDYVEKFKNKATLTADTSSNTAYMQLSSLTSEDTATYFCARFGARSYFYPMDAWGQGTSVTVSS
VL: DTVLTQSPTLAVSPGERVSIPCRASESVSTLMHWYQQKPGQQPRLLIYGASNLESGVPARFSGSGSGTDFTLTIDPVEADDTATYFCQQSWNDPWTFGGGTKLELK
On to B3, for which, in assay [1], the “huPDGF-BB Neutralization Potency (nM)” value was over 10 nM.

B4: chBFU-11A8-D6-C3 (antibody, human IgG1, V domains shown)
VH: EVQLQQSGPELQRPGASVKLSCKASGYTFTESYIYWVKQRPEQSLELIGRIDPEDGSTDYVEKFKNKATLTADTSSNTAYMQLSSLTSEDTATYFCARFGARSYFYPMDAWGQGTSVTVSS
VL: DTVLTQSPTLAVSPGERVSIPCRASESVSTLMHWYQQKPGQQPRLLIYGASNLESGVPARFSGSGSGTDFTLTIDPVEADDTATYFCQQSWNDPWTFGGGTKLELK
For the molecule B4, the “huPDGF-BB Neutralization Potency (nM)” value in assay [1] was determined as 0.086 nM. Besides, in assay [2], the Kd is at most 15 pM, the dissociation rate constant (koff) was found to be 0.00015 s⁻¹ and the on-rate (kon) is at least 1e+07 M⁻¹ s⁻¹.

B5: chBDI-1E1 half body (antibody, V domains shown)
VH: EVKLQQSGDELVRPGASVKMSCKASGYTFTDYVMHWVKQSPGQGLEWIGTIIPLIDTTSYNQKFKGKATLTADKSSNTAYMELSRLTSEDSAVYYCARTSPYYYSSYDVMDAWGQGASVTVSS
VL: NIQLTQSPSLLSASVGDRVTLSCKGSQNINNYLAWYQQKLGEAPKLLIYKTNNLQTGIPSRFSGCGSGTDYTLTISSLHSEDLATYYCYQYDNGYTFGAGTKLELK
Regarding B5, the “huPDGF-BB Neutralization Potency (nM)” value in assay [1] is over 10 nM.

B6: 3E2.1_GS_9E10.1 (PR-1612500) (bispecific antibody, human IgG1, kappa, L234A L235A)
heavy: EVQLVQSGAEVKKPGSSVKVSCKASGYTFTESYMYWVKQAPGQGLELIGRIDPEDGSTDYVEKFKNKATLTADKSTSTAYMELSSLRSEDTAVYFCARFGARSYFYPMDAWGQGTTVTVSSGGGGSGGGGSEIQLVQSGSELKKPGASVKVSCKASGYTFTNYGMYWVKQAPGQGLEYMGWIDTETGRPTYADDFKGRFVFSLDTSVSTAYLQISSLKAEDTAVYFCARWSGDTTGIRGPWFAYWGQGTLVTVSSASTKGPSVFPLAPSSKSTSGGTAALGCLVKDYFPEPVTVSWNSGALTSGVHTFPAVLQSSGLYSLSSVVTVPSSSLGTQTYICNVNHKPSNTKVDKKVEPKSCDKTHTCPPCPAPEAAGGPSVFLFPPKPKDTLMISRTPEVTCVVVDVSHEDPEVKFNWYVDGVEVHNAKTKPREEQYNSTYRVVSVLTVLHQDWLNGKEYKCKVSNKALPAPIEKTISKAKGQPREPQVYTLPPSREEMTKNQVSLTCLVKGFYPSDIAVEWESNGQPENNYKTTPPVLDSDGSFFLYSKLTVDKSRWQQGNVFSCSVMHEALHNAYTQKSLSLSPGK
light: ETVLTQSPATLSLSPGERATLSCRASESVSTLMHWYQQKPGQQPRLLIYGASNLESGVPARFSGSGSGTDFTLTISSLEPEDFAVYFCQQSWNDPWTFGGGTKVEIKGGSGGGGSGGDIRMTQSPSSLSASVGDRVTIECLASEDIYSDLAWYQQKPGKSPKLLIYNANGLQNGVPSRFSGSGSGTDYSLTISSLQPEDVATYFCQQYNYFPGTFGQGTKLEIKRTVAAPSVFIFPPSDEQLKSGTASVVCLLNNFYPREAKVQWKVDNALQSGNSQESVTEQDSKDSTYSLSSTLTLSKADYEKHKVYACEVTHQGLSSPVTKSFNRGEC
With B6, the “Potency IC50 (nM), HMVEC-d hVEGF165 (proliferation)” value (“Potency IC50 (nM), HMVEC-d hVEGF165” below) in assay [3] came out at 0.133 nM. Besides, in assay [4], the “Potency IC50 (nM), NIH-3T3 hPDGF-BB (proliferation)” value (shortened to “Potency IC50 (nM), NIH-3T3 hPDGF-BB”) was determined as 0.394 nM.

B7: 3E2.1_GS_9E10.6 (PR-1612501) (bispecific antibody, human IgG1, kappa, L234A L235A)
heavy: EVQLVQSGAEVKKPGSSVKVSCKASGYTFTESYMYWVKQAPGQGLELIGRIDPEDGSTDYVEKFKNKATLTADKSTSTAYMELSSLRSEDTAVYFCARFGARSYFYPMDAWGQGTTVTVSSGGGGSGGGGSEVQLVQSGAEVKKPGSSVKVSCKASGYTFTNYGMYWVRQAPGQGLEWMGWIDTETGRPTYADDFKGRFTFTADKSTSTAYMELSSLRSEDTAVYYCARWSGDTTGIRGPWFAYWGQGTLVTVSSASTKGPSVFPLAPSSKSTSGGTAALGCLVKDYFPEPVTVSWNSGALTSGVHTFPAVLQSSGLYSLSSVVTVPSSSLGTQTYICNVNHKPSNTKVDKKVEPKSCDKTHTCPPCPAPEAAGGPSVFLFPPKPKDTLMISRTPEVTCVVVDVSHEDPEVKFNWYVDGVEVHNAKTKPREEQYNSTYRVVSVLTVLHQDWLNGKEYKCKVSNKALPAPIEKTISKAKGQPREPQVYTLPPSREEMTKNQVSLTCLVKGFYPSDIAVEWESNGQPENNYKTTPPVLDSDGSFFLYSKLTVDKSRWQQGNVFSCSVMHEALHNAYTQKSLSLSPGK
light: ETVLTQSPATLSLSPGERATLSCRASESVSTLMHWYQQKPGQQPRLLIYGASNLESGVPARFSGSGSGTDFTLTISSLEPEDFAVYFCQQSWNDPWTFGGGTKVEIKGGSGGGGSGGDIRMTQSPSSLSASVGDRVTITCLASEDIYSDLAWYQQKPGKSPKLLIYNANGLQNGVPSRFSGSGSGTDYTLTISSLQPEDVATYFCQQYNYFPGTFGQGTKLEIKRTVAAPSVFIFPPSDEQLKSGTASVVCLLNNFYPREAKVQWKVDNALQSGNSQESVTEQDSKDSTYSLSSTLTLSKADYEKHKVYACEVTHQGLSSPVTKSFNRGEC
As for B7, in assay [3], the “Potency IC50 (nM), HMVEC-d hVEGF165” value was 0.188 nM. In addition, the “Potency IC50 (nM), NIH-3T3 hPDGF-BB” value in assay [4] turned out to be 0.377 nM.

B8: chBDI-9E8 half-body (antibody, V domains shown)
VH: QVTLKESGPGILQPSQTLSLTCTFSGFSLSTYGMGVGWIRQPSGKGLEWLANIWWDDDKYYNPSLKNRLTISKDTSNNQAFLKITNVDTADTATYYCARIESIGTTYSFDYWGQGVMVTVSS
VL: QFTLTQPKSVSGSLRSTITIPCERSSGDIGDSYVSWYQQHLGRPPINVIYADDQRPSEVSDRFSGSIDSSSNSASLTITNLQMDDEADYFCQSYDINIDIVFGGGTKLTVL
For B8, the “huPDGF-BB Neutralization Potency (nM)” value in assay [1] is 1.84 nM.

B9: chBDI-5H1 half-body (antibody, V domains shown)
VH: QVTLKESGPGILQPSQTLSLTCTFSGFSLSTFGMGVGWIRQPSGKGLEWLANIWWDDDKYYNPSLKNRLTISKDTSNSQAFLEITNVDTADTATYYCARISTGISSYYVMDAWGQGASVTVSS
VL: QFTLTQPKSVSGSLRSTITIPCERSSGDIGDTYVSWYQQHLGRPPINVIYGNDQRPSEVSDRFSGSIDSSSNSASLTITNLQMDDEADYFCQSYDSDIDIVFGGGTKLTVL
For the molecule B9, the “huPDGF-BB Neutralization Potency (nM)” value in assay [1] was over 10 nM.

B10: 3E2.1_GS_1B10.1 (PR-1612502) (bispecific antibody, human IgG1, kappa, L234A L235A)
heavy: EVQLVQSGAEVKKPGSSVKVSCKASGYTFTESYMYWVKQAPGQGLELIGRIDPEDGSTDYVEKFKNKATLTADKSTSTAYMELSSLRSEDTAVYFCARFGARSYFYPMDAWGQGTTVTVSSGGGGSGGGGSEVQLVESGGGLVQPGGSLRLSCAASGFSFSKYDMAWFRQAPGKGLEWVASITTSGVGTYYRDSVKGRFTVSRDNAKSTLYLQMNSLRAEDTAVYYCARGYGAMDAWGQGTTVTVSSASTKGPSVFPLAPSSKSTSGGTAALGCLVKDYFPEPVTVSWNSGALTSGVHTFPAVLQSSGLYSLSSVVTVPSSSLGTQTYICNVNHKPSNTKVDKKVEPKSCDKTHTCPPCPAPEAAGGPSVFLFPPKPKDTLMISRTPEVTCVVVDVSHEDPEVKFNWYVDGVEVHNAKTKPREEQYNSTYRVVSVLTVLHQDWLNGKEYKCKVSNKALPAPIEKTISKAKGQPREPQVYTLPPSREEMTKNQVSLTCLVKGFYPSDIAVEWESNGQPENNYKTTPPVLDSDGSFFLYSKLTVDKSRWQQGNVFSCSVMHEALHNAYTQKSLSLSPGK
light: ETVLTQSPATLSLSPGERATLSCRASESVSTLMHWYQQKPGQQPRLLIYGASNLESGVPARFSGSGSGTDFTLTISSLEPEDFAVYFCQQSWNDPWTFGGGTKVEIKGGSGGGGSGGDIQMTQSPSSLSASVGDRVTITCKASQDIDDYLSWYQQKPGKSPKLVIYAATRLADGVPSRFSGSGSGTDYTLTISSLQPEDFATYYCLQSSSTPWTFGGGTKVEIKRTVAAPSVFIFPPSDEQLKSGTASVVCLLNNFYPREAKVQWKVDNALQSGNSQESVTEQDSKDSTYSLSSTLTLSKADYEKHKVYACEVTHQGLSSPVTKSFNRGEC
For the molecule B10, the “Potency IC50 (nM), HMVEC-d hVEGF165” value in assay [3] is 1.78 nM. In addition, the “Potency IC50 (nM), NIH-3T3 hPDGF-BB” value in assay [4] amounted to 0.187 nM.
